Reference: the DeepSol protein solubility set

assay: soluble on expression in E. coli; label from the status in PepcDB or PDB records

Q: With “MKNLAIFDLDNTLINTDSDHAWPQYLIKKGLVDAAETEAQNEKFYRDYQNGCLDIDAFLKFHLAPLARYSKEELAEFHREFMAEYIIPHISPMQRMLVQSHQMAGDETLVISSTNEFIITPVCHLFGITNIIGTQLETGSDGRYTGNYIGTPSLKEGKITRLNQWLAERGETLQSYGKTYFYSDSKNDLPLLRLVSEPVAVNPDAELEKEAKEKGWPVLNFK” as the sequence, how does the “soluble on expression in E. coli” value read?
A: soluble

Q: Which “soluble on expression in E. coli” value does the source give for “MKNLINWFEIPVTDMARAIAFYEQVMQISLRRETMDGADLAVFPYAEPGPGGALIKQDDVAPVAQGVVIYLHTADLLASIERVVLAGGKCVLEPMVPGDDIGTIALFIDSEGNRIGLHQPALEHHHHHH” here?
A: not soluble

Q: For “MKNLTTIKQTNKNVKQERRKKYADLAIQGTNNSSIASKRSVELLYLPKLSSANNFQMDKNNKLLEYFKFFVPKKIKRSPCINRGYWLRLFAIRSRLNSIIEQTPQDKKIVVVNLGCGYDPLPFQLLDTNNIQSQQYHDRVSFIDIDYSDLLKIKIELIKTIPELSKIIGLSEDKDYVDDSNVDFLTTPKYLARPCDLNDSKMFSTLLNECQLYDPNVVKVFVAEVSLAYMKPERSDSIIEATSKMENSHFIILEQLIPKGPFEPFSKQMLAHFKRNDSPLQSVLKYNTIESQVQRFNKLGFAYVNVGDMFQLWESADEATKKELLKVEPFDELEEFHLFCHHYVLCHATNYKEFAFTQGFLFDRSISEINLTVDEDYQLLECECPINRKFGDVDVAGNDVFYMGGSNPYRVNEILQLSIHYDKIDMKNIEVSSSEVPVARMCHTFTTISRNNQLLLIGGRKAPHQGLSDNWIFDMKTREWSMIKSLSHTRFRHSACSLPDGNVLILGGVTEGPAMLLYNVTEEIFKDVTPKDEFFQNSLVSAGLEFDPVSKQGIILGGGFMDQTTVSDKAIIFKYDAENATEPITVIKKLQHPLFQRYGSQIKYITPRKLLIVGGTSPSGLFDRTNSIISLDPLSETLTSIPISRRIWEDHSLMLAGFSLVSTSMGTIHIIGGGATCYGFGSVTNVGLKLIAIAK”, which “soluble on expression in E. coli” value is on record?
A: soluble

Q: Which “soluble on expression in E. coli” value does the source give for “MKNNKDEKIRISIINGFLGSGKTTLLTHYISELLKNDEKIKIIMNEFGTFDIDSNSISNEIEVHSLINGCVCCDLKQELVYELKAIALKGDVNHVIIETTGIAHPLELLVACQDPQIVNFFEKPIIYGVLDATRFLERHQYTENTVSLMEDQLKLSDMIIINKIDLITDDRLERIDKQLGMICASIPTYKTTYGKVSLEELDLTVKDREISSHHHHHHGIKSMTYTFTGPIDRQLFYQFIMKLPESVLRLKGYVSFRDQPNAIYEFQYAYGLPDYGIIGMQLPLTIVIIGETLDTNHIRNQLDMLQFT” here?
A: not soluble

Q: Which “soluble on expression in E. coli” value does the source give for “MKNNKPICFYDIYCFKPQECFKRNDINLLEDKLKRYSKITFLRNKENPEIIFLLGGDGSFINFINQQWKKNVKIVGINYGQLGFYSSYDSIKTINLDEIIDENMYYNPLLLKVSINNQNFFYCLNELSLFSNELVSFDISINDYPYEKFRGSGLLFVTPSGSTGKNKTAFGPIIFNNHENFIMTEIFPVNHLKYSSLNAPVVFRKDYKISLTNIKFKKSFSVAIDGNIINFSDKINDIKVETIQASSKIHGLNNFKKYIDKLNKSFIKGEMAGDPLEHHHHHH” here?
A: soluble

Q: With “MKNTGTSVKFGESSTQALIRAAYRQVFGRDLYEGQRLSVAEIQLENGDISVREFIKRLAKSELFLKLYWAPHYVCKAIEYMHRRLLGRPTYGRQEMNQYFDIASKQGFYAVVEAMIDSKEYSDAFGEDTVPYERYLTPGGLEHHHHHH” as the sequence, how does the “soluble on expression in E. coli” value read?
A: not soluble

Q: Which “soluble on expression in E. coli” value does the source give for “MKPAAREARLPPRSPGLRWALPLLLLLLRLGQILCAGGTPSPIPDPSVATVATGENGITQISSTAESFHKQNGTGTPQVETNTSEDGESSGANDSLRTPEQGSNGTDGASQKTPSSTGPSPVFDIKAVSISPTNVILTWKSNDTAASEYKYVVKHKMENEKTITVVHQPWCNITGLRPATSYVFSITPGIGNETWGDPRVIKVITEPIPVSDLRVALTGVRKAALSWSNGNGTASCRVLLESIGSHEELTQDSRLQVNISGLKPGVQYNINPYLLQSNKTKGDPLGTEGGLDASNTERSRAGSPTAPVHDESLVGPVDPSSGQQSRDTEVLLVGLEPGTRYNATVYSQAANGTEGQPQAIEFRTNAIQVFDVTAVNISATSLTLIWKVSDNESSSNYTYKIHVAGETDSSNLNVSEPRAVIPGLRSSTFYNITVCPVLGDIEGTPGFLQVHTPPVPVSDFRVTVVSTTEIGLAWSSHDAESFQMHITQEGAGNSRVEITTNQSIIIGGLFPGTKYCFEIVPKGPNGTEGASRTVCNRTGKQI” here?
A: soluble

Q: With “MKPADIDKLISEIRTAIYAEQSHRKIIEIDPDIYRKVRAALSDLQAEASEYFQKQDIENYLTMNNRFQTLKRDFRSLFQRRFEKIVAKAIYDISGETLSLLTDEEKEFIEKIHNIITEEFESFIPKREEKNEARAEAQPAPADESPTAIADQKPQEEPQVVQDQHQPPAEIPSENIEIKKEDGRYVLVMITEDLPPIAQLDRNYSLHSNDLVYLPQDLASILAKRKVALVLDQ” as the sequence, how does the “soluble on expression in E. coli” value read?
A: soluble

Q: For “MKPKKRQMEYLTRGLIAVQTEQGVFVSWRFLGTDHETTAFHLYRDGKRITRDPIAESTNFLDQNGTADSVYQVAAVNKGREEKLSKKARVWQENVLEVPLAKPEGGVTPDGKPYTYSANDASVGDIDGDGEYEMILKWDPSNSKDNAHDGYTGEVLIDAYKLDGTFLWRINLGRNIRAGAHYTQFMVYDLDGDGKAEIAMKTADGTTDGKGHIIGDEQADFRNEQGRILSGPEYLTVFKGETGEALTTVEYEPPRGKLEDWGDGYGNRMDRFLAGTAYLDGERPSLVMARGYYTRTVLVAYDFRNGRLKKRWVFDSNQPGHEAYAGQGNHSLSVADVDGDGKDEIIYGAMAVDHDGTGLYSTGLGHGDAMHVGDLDPSRKGLEVFQVHEDATKPYGLSLRDAGTGEILWGVHAGTDVGRGMAAHIDPSYKGSLVWGIDPPGNDGMSYGLFTSKGEKISDKAPSSANFAIWWDGDLVRELLDHDWDGTIGRPKIEKWDAENGCLKTIFQPAGVLSNNGTKGNPVLQANLFGDWREEVIWRTEDSSALRIYTTTHLTRHCFYTLMHDPVYRLGIAWQNTAYNQPPHTSFYLGTGMKKPPKPALYIAGSKAEAPLLEHHHHHH”, which “soluble on expression in E. coli” value is on record?
A: soluble

Q: For “MKPKVVRYLDEGEFPLAEEEALRLYRAMRRARFFDEKALTLQRQGRLGVYAPFMGQEAAQVGVALALEERDWVVPSYRESAMLLAKGLPIHTLILYWRAHPAGWRFPEGVRAVNPYIPIATQIPQAVGLALAGRYRGEDWVVATSIGDGGTSEGDFHEGLNFAAVFGAPVVFLVQNNGYAISVPKSRQMKVDYVARRAEGYGMPGVVVDGNDAFAVYLEAKKAVERARKGEGPTLLEALTYRLAPHTTSDDPSRYRSKEEEEAWRAKDPILRLRKALEGRGLWGEEAEKALLLELEEEFQRELALADEAPEPRPEEIVEHVYAEMGPDQRRAWEALRRGLHVEEVE”, which “soluble on expression in E. coli” value is on record?
A: soluble

Q: For “MKPLTDTDYIHALIAEGEHQQQDFKFEISDTRKIAKTLSAFANTDGGRLLIGVKDNGKIAGVRSDEEKYMIEAAAQLYCWPEVDYSMQTFHVEGRSVLVVQIDESEHKPVFAKDENGKSLAYIRIKDENILATPVHLRVWQQSGSPAGELIRYTEREQLLLDLLEENTSLSLNRYCRQAGISRRAAEHLLAKFIRFDIVEPIFENHKFYFRLKLEHHHHHH”, which “soluble on expression in E. coli” value is on record?
A: soluble

Q: For “MKPSQWTLRWVTLCGCGMLAASAAAVELPGTVQPSQLDERFKPRSEPQAKPEAPLVVPKQVAPQGSEQIRFKLREIRIEGNTRYDKAVLESYYQHMLGEQVSLAELVDLANRLTAKYRQDGFLLTQVVVPEQSIEGGKVRLQVIEGYLEHVQIKGTVDGPRVRVEELLAPLTEKRPLDADTLERGLLLVGDLPGVNVQSVLSPGQALGSSNLDVALQQQRYEGFVSLDNRGSHYTDPTTLAFGATEFSRLGFYEQIDVLGAISPFSDATRYIQLRGTLPLGGMFAGDTLQIMGSYSKVNPDIPDSVFPFDSVSKSTEGSISYNHPFIRSRSQNLSGGLALQWKDTETRLRDFASDASNPGRDHVRVFQQRLTYDWVDRWMGINLAEVRNNIGLDMWGATKKDDERRSREVADGRFVYLNGNIGRLQGLGGPWSVYGELQWQYSFDPLLPSERFGVGGSGIGRGFAPGNITGDRGFALKLEPRYGQAVGYSWLRSYQAYAFYDWGKTYNLDVDDDEQQKLGSIGAGVRFNLTDQLSFNPEIARQVIGEPADQRDGKRETRVLFNVVARF”, which “soluble on expression in E. coli” value is on record?
A: not soluble

Q: Which “soluble on expression in E. coli” value does the source give for “MKPVKAKCEVCEHMFRVQMLTARLSNRVDKHYFICPSCKTEFISYYSNREMRQLQKEISNLYKGFRTCYTKEQAKVIQAKIDKKDLEFKWLRDILRTEIENNLPN” here?
A: not soluble

Q: With “MKPVTLYDVAEYAGVSYQTVSRVVNQASHVSAKTREKVEAAMAELNYIPNRVAQQLAGKQSLLIGVATSSLALHAPSQIVAAIKSRADQLGASVVVSMVERSGVEACKAAVHNLLAQRVSGLIINYPLDDQDAIAVEAACTNVPALFLDVSDQTPINSIIFSHEDGTRLGVEHLVALGHQQIALLAGPLSSVSARLRLAGWHKYLTRNQIQPIAEREGDWSAMSGFQQTMQMLNEGIVPTAMLVANDQMALGAMRAITESGLRVGADISVVGYDDTEDSSCYIPPLTTIKQDFRLLGQTSVDRLLQLSQGQAVKGNQLLPVSLVKRKTTLAPNTQTASPRALADSLMQLARQVSRLESGQ” as the sequence, how does the “soluble on expression in E. coli” value read?
A: soluble

Q: For “MKPWLITPERLTSEQIGLLDHFFDRGLERLHLRLPSAGEEDYSQVIEAVAACYRRRIVVHDHPRLVGRYGLCGLHLPERVWKGMTDRPQLPDGCTVSASCHAIEDIESFPFRLDYCFLSPVFDSLCKVGYAGRFSPDS”, which “soluble on expression in E. coli” value is on record?
A: not soluble

Q: With “MKPYDLSEAVAVVTGGSSGIGLATVELLLEAGAAVAFCARDGERLRAAESALRQRFPGARLFASVCDVLDALQVRAFAEACERTLGCASILVNNAGQGRVSTFAETTDEAWSEELQLKFFSVIHPVRAFLPQLESRADAAIVCVNSLLASQPEPHMVATSAARAGVKNLVRSMAFEFAPKGVRVNGILIGLVESGQWRRRFEAREERELDWAQWTAQLARNKQIPLGRLGKPIEAARAILFLASPLSAYTTGSHIDVSGGLSRHA” as the sequence, how does the “soluble on expression in E. coli” value read?
A: soluble

Q: Which “soluble on expression in E. coli” value does the source give for “MKQADQTYRGQFKDDLYDGAGQLELADGSRYQGLFAKGKPNGAGVRSDASGNQFSGHFVNGQLQGAGTYDSVDGEQYIGEFKDNRLEGRGRYENADGDVWIGEFKDGSLIGEGELLGSDGSHYKGEFADWRLSGQGSLQLADGSKYIGGFLNDAYHGHGRLILPSGKVESGTWANGVRVRDQNGKLLPDPLDLALLNQGRLLDEALVRVPRSAPPIQLYSLVVAGDGQQSVFLREADYVSRMLKVRFGARGQVTLVNHRDHMATRPMATRENLSRAAATLAERSGPEDLVFIYLTSHGSQDHQLVLDQPRLQLADLAADELATALAPLKDRDKVIVISACYSGGYIAPLKDERTLIMTAARADRVSFGCSEEADFTYFGDALFAEALNQTDDLKQAFELARASVAEREQREGFEASEPQLWAPPAVLEHWHQLRQQQAEEALRNATQANVSKQAKMPGTHLEHHHHHH” here?
A: soluble

Q: With “MKQDGEEGTEEDTEEKCTICLSILEEGEDVRRLPCMHLFHQVCVDQWLITNKKCPICRVDIEAQLPSES” as the sequence, how does the “soluble on expression in E. coli” value read?
A: soluble

Q: With “MKQKEYMEYRPLGEEIERIRKGKNIPLRVFDENGVSSRSYQRFVQGNSELRISDLAIIVEILSISPMEMTEKLTPMSKTVLAKEQFNQAIFSKNFQESSRIVADYRAYYEKSSFALGKQEVMYSMLALEYLFNPQTVVTKEEIIALENQILERLINADVYTIFNLKFLALQKNVGLQPFPTSLLFRVLQSVNEREIIDIRSLEIIEQVIIDFLFAAIVSQNVPHILHVLSMFKEYEVGENNWRMILWKKIAEKIEMILTNEEIFADWSIFKEQILLSITLFLPKAKQEFFAGQLEKIEDSLKEIKEN” as the sequence, how does the “soluble on expression in E. coli” value read?
A: not soluble

Q: For “MKQLYWYTCGEGDCDLVLLHGWGLNSGVWHCIIDRLAPHFRLHLVDLPGYGRSQDYGAMSLADMAERVAQQAPKQALWLGWSMGGLVASQIALSQPECVRGLITVSSSPCFTARDEWPGIKPEVLAGFQHQLSDDFHRTVERFLALQTLGTESSRQDARLLKSVVLQHQMPDVEVLTGGLAILRTADLRTALAGFTLPFMRVYGHLDSLVPRKVASLLDSAWPQTQSVVMQGAAHAPFISHPNDFAKLILNFAEENKK”, which “soluble on expression in E. coli” value is on record?
A: not soluble
